T1: Aβ17-40 peptide, biotinylated (Anaspec) (biotinylated (position not given))
T1 peptide: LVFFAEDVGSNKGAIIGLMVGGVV


How the values were obtained:
[1] = target: T1, Aβ17-40 peptide, biotinylated (Anaspec); assay: ELISA, biotin-peptide on streptavidin, Ab 10 µg/ml; mean of 2, background subtracted
From the text: (§1) The peptides in the peptide library were composed of 8, 9 or 10-mer aa peptides. A biotinylated complete Aβ₁₋₄₂ peptide (human sequence) was used as positive control (Bachem, Bubendorf, Switzerland). In addition, longer peptides covering Aβ1-28, Aβ17-40, Aβ1-40 and Aβ₁₋₄₂ were used to define the broader region to which these antibodies may bind. These 4 peptides were also biotinlyated (manufactured by Anaspec and purchased from ANAWA Trading SA, Switzerland). Epitope mapping was done according to the manufacturer's (Mimotopes) instructions. Briefly, Streptavidin coated plates (NUNC, Roskilde, Denmark) were blocked with 0.1% BSA in PBS overnight at 4° C. After washing with PBS-0.05% Tween 20, plates were coated for 1 hour at RT with the different peptides from the library, diluted in 0.1% BSA, 0.1% Sodium Azide in PBS to a final concentration of 10 μM. […] Plates were washed again and incubated with alkaline phosphatase conjugated goat anti mouse IgG (Jackson Immunresearch West Grove, Pa., USA) for 1 h at RT. After final washing, plates were incubated with phosphatase substrate (pNPP, Sigma-Aldrich, St Louis, Mo., USA) and read after 3 hours of incubation at 405 nm using an ELISA plate reader.

[2] = target: T2, Aβ1-42 peptide, biotinylated (Anaspec) (biotinylated (position not given)); assay: as above
T2 construct: also called 1-42A
T2 sequence (peptide, as listed by the source): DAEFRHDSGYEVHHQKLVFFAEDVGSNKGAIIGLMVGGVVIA
From the text: as §1

[3] = target: T3, Biotinylated complete Aβ1-42 peptide (human sequence, Bachem) (human, biotinylated (position not given)); assay: as above
T3 construct: also called 1-42B; Aβ1-42 (positive control of the peptide library ELISA)
T3 sequence (peptide, as listed by the source): as above
From the text: as §1

[4] = target: T4, Aβ1-40 peptide, biotinylated (Anaspec) (biotinylated (position not given)); assay: as above
T4 construct: also called Ab1-40
From the text: as §1

Aβ1-42 peptide = assay: cell-based or functional assay
Chain of Aβ1-42 peptide (peptide, as listed by the source): as above

[5] = target: T1, Aβ17-40 peptide, biotinylated (Anaspec); assay: ELISA on longer biotinylated Aβ peptides
From the text: as §1

[6] = target: T3, Biotinylated complete Aβ1-42 peptide …; assay: peptide library ELISA, positive control, Ab 10 µg/ml
From the text: as §1

Binder	O.D. [1] [O.D.]	O.D. [2] [O.D.]	O.D. [3] [O.D.]	O.D. [4] [O.D.]	disaggregation of pre-aggregated Aβ1-42, thioflavin T assay, molar ratio 1:10 (Aβ1-42 peptide) [%]	disaggregation of pre-aggregated Aβ1-42, thioflavin T assay, molar ratio 1:100 (Aβ1-42 peptide) [%]	inhibition of Aβ1-42 aggregation, thioflavin T assay, molar ratio 1:10 (Aβ1-42 peptide) [%]	inhibition of Aβ1-42 aggregation, thioflavin T assay, molar ratio 1:100 (Aβ1-42 peptide) [%]	binding result [5]	O.D. [6] [O.D.]
ACI-11-Ab-9 monoclonal antibody (antibody, V domains shown, Mouse monoclonal IgG from hybridoma FG1F9E4 (DSM ACC2845); also called clone FG1F9E4) VH: QVQLQQSDAELVKPGASVKISCKVSGYTFTDHTIHWMKQRPEQGLEWIGYIYPRDGSTKYNEKFKGKATLTADKSSSTAYMQLNSLTSEDSAVYFCARDYGYAFDYWGQGTTLTVSS VL: QAVVTQESALTTSPGGTVILTCRSSTGAVTTSNYANWVQEKPDHLFTGLIGGTSNRAPGVPVRFSGSLIGDKAALTITGAQTEDDAMYFCALWYSTHYVFGGGTKVTVL	0.02	0.78	1.54	1.02	52	22	69	34	no binding (tested: 10 µg/ml)	–
ACI-12-Ab-11 monoclonal antibody (antibody, V domains shown, Mouse monoclonal IgG from hybridoma FK2A6A6 (DSM ACC2846); also called ACI-12-Ab-11 (clone: FK2A6A6); clone FK2A6A6) VH: QVQLQQSDAELVKPGASVKISCKVSGYTFTDHTIHWMKQRPEQGLEWIGYIYPRDGSTKYNEKFKGKATLTADKSSSTAYMQLNSLTSEDSAVYFCARDYGYAFDYWGQGTTLTVSS VL: QAVVTQESALTTSPGGTVILTCRSSTGAVTTSNYANWVQEKPDHLFTGLIGGTSNRAPGVPVRFSGSLIGDKAALTITGAQTEDDAMYFCALWYSTHYVFGGGTKVTVL	-0.02	0.44	1.07	0.62	54	18	66	30	–	0.69
